Results from article PMC4839745.

Target: HARE(ΔM3) single-motif deletion cytoplasmic domain mutant lacking NPLY2519
Experiment: co-IP; HARE variants precipitated from cell lysate (300 μg protein) with goat anti-V5 Ab (2 μg/ml) and Protein A/G Plus Agarose, 4°C; blot with anti-tERK1/2 Ab; cells incubated with or without 10 μg/ml (709 nM) UFH for 20 min; Lysis Buffer with 0.5% Nonidet P-40

percent decrease of association (tERK:HARE ratio) against WT HARE	Substance
67%	ERK2 (of ERK1/2, p44/42) (from UniProt P28482 1-360) (enzyme)
67%	ERK1 (of ERK1/2, p44/42) (from UniProt P27361 1-379) (enzyme)
